From publication PMC9868604, “Structural insights into 3Fe–4S ferredoxins diversity in M. tuberculosis highlighted by a first redox complex with P450” (Frontiers in Molecular Biosciences, 2022)

Columns and labels:
Settings in all cases: both partners purified
[1] = biological target: T1, Biotinylated CYP143 with Avi-tag at the C-terminus (M. tuberculosis, UniProt P9WPL3 2-393, biotin (on the Avi-tag)); assay: SPR; as a1, sensorgrams at 10, 15, 20, 25, 30 and 35°C; enthalpy from the slope of a Van't Hoff plot
T1 construct: also called CYP143A1; Rv1785c; not shown: Avi-tag, C-terminal, kept
T1 sequence (P9WPL3 2-393): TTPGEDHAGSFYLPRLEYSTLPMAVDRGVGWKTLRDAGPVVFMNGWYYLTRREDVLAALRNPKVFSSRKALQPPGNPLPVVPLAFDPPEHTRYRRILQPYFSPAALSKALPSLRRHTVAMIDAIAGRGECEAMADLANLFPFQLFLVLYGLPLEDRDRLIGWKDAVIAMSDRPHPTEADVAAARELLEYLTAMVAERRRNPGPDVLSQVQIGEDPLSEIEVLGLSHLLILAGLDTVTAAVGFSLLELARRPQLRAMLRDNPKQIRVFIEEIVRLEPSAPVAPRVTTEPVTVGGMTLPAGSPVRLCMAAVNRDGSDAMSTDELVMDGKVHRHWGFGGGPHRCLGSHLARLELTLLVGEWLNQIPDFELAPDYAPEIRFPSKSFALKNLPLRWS

[2] = biological target: T1, Biotinylated CYP143 with Avi-tag at the …; assay: SPR
[3] = biological target: T2, CYP143 part of the FdxE-CYP143 fusion protein (M. tuberculosis, UniProt P9WPL3 2-393); assay: crystal structure; FdxE fused via a linker to the N-terminus of CYP143 on one chain; 1.6 Å; crystals in .2 M sodium chloride, .1 M Bis-Tris pH 6.0, 25% PEG3350, 20°C
T2 construct: also called fusion FdxE–CYP143
T2 sequence (P9WPL3 2-393): as above

Row | Binder | dH [1] [kcal/mol] | Kd [2] [nM] | koff [2] [s⁻¹] | kon [2] [M⁻¹ s⁻¹] | binding result [3]
1 | FdxE (Rv1786), 3Fe-4S ferredoxin of M. tuberculosis (natural protein, also called ferredoxin Rv1786; mtb_1786) MKVRLDPSRCVGHAQCYAVDPDLFPIDDSGNSILAEHEVRPEDMQLTRDGVAACPEMALILEEDDAD | -10.8 ± 2.15 | 84 ± 2 | 0.0423 ± 0.0005 | 502000 | 
2 | FdxE part of the FdxE-CYP143 fusion protein (domain or fragment, also called fusion FdxE–CYP143; not shown: His-tag, N-terminal, kept) KVRLDPSRCVGHAQCYAVDPDLFPIDDSGNSILAEHEVRPEDMQLTRDGVAACPEMALILEEDDAD |  |  |  |  | binds
